Assay results: patent US20260130970A1, “PRESERVED GIP/GLP AGONIST COMPOSITIONS” (ELI LILLY AND COMPANY, priority 2022, published 2026)

Assay: Light scattering of tirzepatide samples (apparent weight-average molecular weight, self-association)
Type: physicochemical
Settings: Mounjaro™ matrix (5 mM phosphate buffer, 140 mM NaCl, pH=7.0), 5 mg/mL to 30 mg/mL
Procedure: Tirzepatide formulations were prepared for light scattering measurements, with compositions detailed in Tables 1.a and 1.b. Light scattering data were collected using an ALV-CGS3 goniometer-based light scattering instrument (ALV-GmbH, Langen, Germany), which is a self-contained system with 22 mW 633 nm HeNe laser. Samples were filtered into disposable glass tubes using appropriate filters. Corresponding drug product placebos were used as scattering blanks. A single 15- or 30-second-long acquisition at 90-degree scattering angle was collected per sample, using the dynamic light scattering (DLS) mode. The resulting DLS auto-correlation functions were analyzed using intensity-weighted regularized size distributions, and shown to be monomodal before proceeding. The time-averaged scattering intensity values of the samples, placebos and toluene were used to calculate the excess Rayleigh ratios.
Apparent weight-average molecular weight (WAMW) values were calculated using formula (1):
[formula] • where K is an optical constant, c is the peptide mass concentration, and R is the excess Rayleigh ratio. A refractive index increment (dn/dc) of 0.185 mL/g was assumed.
To study the effect of preservatives, m-cresol, phenol or benzyl alcohol at selected concentrations were added to a standard Mounjaro™ composition. […]

**Q.** With tirzepatide as the substance, how does the self-association of tirzepatide read?
**A.** Its self-association of tirzepatide is “monomer-trimer-hexamer equilibrium”.
